± gives the uncertainty stated by the source.
B1: library; numbered along this chain (parent)
chain: MEVVDPQQLGMFTEGELMSVGMDTFIHRIDSTEVIYQPRRKRAKLIGKYLMGDLLGEGSYGKVKEVLDSETLCRRAVKILKKKKLRRIPNGEANVKKEIQLLRRLRHKNVIQLVDVLYNEEKQKMYMVMEYCVCGMQEMLDSVPEKRFPVCQAHGYFCQLIDGLEYLHSQGIVHKDIKPGNLLLTTGGTLKISDLGVAEALHPFAADDTCRTSQGSPAFQPPEIANGLDTFSGFKVDIWSAGVTLYNITTGLYPFEGDNIYKLFENIGKGSYAIPGDCGPPLSDLLKGMLEYEPAKRFSIRQIRQHSWFRKKHPPAEAPVPIPPSPDTKDRWRSMTVVPYLEDLHGADEDEDLFDIEDDIIYTQDFTVPGQVPEEEASHNGQRRGLPKAVCMNGTEAAQLSTKSRAEGRAPNPARKACSASSKIRRLSACKQQ

Variants of: B1
Assay: STK11 functional score (HeLa growth suppression), rescaled enrichment; synonymous median = 1, nonsense median = 0 (normalised score)
Settings: with HeLa; variant type: missense
Procedure, shortened: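 The values are functional scores: wild-type-corrected log ratios of post- versus pre-selection abundance, rescaled to synonymous and nonsense medians, merged over codons and replicate transfections, and carrying bootstrapped error. They derive from codon-randomised (POPCode), codon-optimised STK11 libraries that Bxb1 integrated at an AAVS1 landing pad in HeLa, with three transfections for each of three regions. Sequencing of tiled gDNA amplicons ran on NextSeq, at ~2 million reads per tile.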

Going from MEVVDPQQLGMFTEGELMSVGMDTFIHRIDSTEVIYQPRRKRAKLIGKYLMGDLLGEGSYGKVKEVLDSETLCRRAVKILKKKKLRRIPNGEANVKKEIQLLRRLRHKNVIQLVDVLYNEEKQKMYMVMEYCVCGMQEMLDSVPEKRFPVCQAHGYFCQLIDGLEYLHSQGIVHKDIKPGNLLLTTGGTLKISDLGVAEALHPFAADDTCRTSQGSPAFQPPEIANGLDTFSGFKVDIWSAGVTLYNITTFLYPFEGDNIYKLFENIGKGSYAIPGDCGPPLSDLLKGMLEYEPAKRFSIRQIRQHSWFRKKHPPAEAPVPIPPSPDTKDRWRSMTVVPYLEDLHGADEDEDLFDIEDDIIYTQDFTVPGQVPEEEASHNGQRRGLPKAVCMNGTEAAQLSTKSRAEGRAPNPARKACSASSKIRRLSACKQQ [G251F] to MEVVDPQQLGMFTEGELMSVGMDTFIHRIDSTEVIYQPRRKRAKLIGKYLMGDLLGEGSYGKVKEVLDSETLCRRAVKILKKKKLRRIPNGEANVKKEIQLLRRLRHKNVIQLVDVLYNEEKQKMYMVMEYCVCGMQEMLDSVPEKRFPVCQAHGYFCQLIDGLEYLHSQGIVHKDIKPGNLLLTTGGTLKISDLGVAEALHPFAADDTCRTSQGSPAFQPPEIANGLDTFSGFKVDIWSAGVTLYNITTGLYPFEGDNIYKLFENIGKGSYAIPGDCGPPLSDLLKGMLEYEPAKRFSIRQIRQHSWFRKKHPPAEAPVPIPPSPDTKDRWRSMTVVPYLEDLHIADEDEDLFDIEDDIIYTQDFTVPGQVPEEEASHNGQRRGLPKAVCMNGTEAAQLSTKSRAEGRAPNPARKACSASSKIRRLSACKQQ [G346I], the STK11 functional score rises from 0.127 ± 0.13 to 1.18 ± 0.33.

Going from MEVVDPQQLGMFTEGELMSVGMDTFIHRIDSTEVIYQPRRKRAKLIGKYLMGDLLGEGSYGKVKEVLDSETLCRRAVKILKKKKLRRIPNGEANVKKEIQLLRRLRHKNVIQLVDVLYNEEKQKMYMVMEYCVCGMQEMLDSVPEKRFPVCQAHGYFCQLIDGLEYLHSQGIVHKDIKTGNLLLTTGGTLKISDLGVAEALHPFAADDTCRTSQGSPAFQPPEIANGLDTFSGFKVDIWSAGVTLYNITTGLYPFEGDNIYKLFENIGKGSYAIPGDCGPPLSDLLKGMLEYEPAKRFSIRQIRQHSWFRKKHPPAEAPVPIPPSPDTKDRWRSMTVVPYLEDLHGADEDEDLFDIEDDIIYTQDFTVPGQVPEEEASHNGQRRGLPKAVCMNGTEAAQLSTKSRAEGRAPNPARKACSASSKIRRLSACKQQ [P179T] to MEVVDPQQLGMFTEGELMSVGMDTFIHRIDSTEVIYQPRRKRAKLIGKYLMGDLLGEGSYGKVKEVLDSETLCRRAVKILKKKKLRRIPNGEANVKKEIQLLRRLRHKNVIQLVDVLYNEEKQKMYMVMEYCVCGMQEMLDSVPEKRFPVCQAHGYFCQLIDGLEYLHSQGIVHKDIKPGNLLDTTGGTLKISDLGVAEALHPFAADDTCRTSQGSPAFQPPEIANGLDTFSGFKVDIWSAGVTLYNITTGLYPFEGDNIYKLFENIGKGSYAIPGDCGPPLSDLLKGMLEYEPAKRFSIRQIRQHSWFRKKHPPAEAPVPIPPSPDTKDRWRSMTVVPYLEDLHGADEDEDLFDIEDDIIYTQDFTVPGQVPEEEASHNGQRRGLPKAVCMNGTEAAQLSTKSRAEGRAPNPARKACSASSKIRRLSACKQQ [L184D], the STK11 functional score falls from 0.709 ± 0.13 to -0.0783 ± 0.1.

MEVVDPQQLGMFTEGELMSVGMDTFIHRIDSTEVIYQPRRKRAKLIGKYLMGDLLGEGSYGKVKEVLDSETLCRRAVKILKKKKLRRIPNGEANVKKEIQLLRRLRHKNVIQLVDVLYNEEKQKMYMVMEYCVCGMQEMLDSVPEKRFPVCQAHGYFCQLIDGLEYLHSQGIVHKDIKPGNLLLTTGGTLKISDLGVAEALHPFAADDTCRTSQGSPAFQPPEIANGLDTFSGFKVDIWSAGVTLYNITTGLYPFEGDNIYKLFENIGKGSYAIPGDCGPPLSDLLKGMLEYEPAKRFSIRQIRQHSWFRKKHPPAEAPVPIPPSPDTKDRWYSMTVVPYLEDLHGADEDEDLFDIEDDIIYTQDFTVPGQVPEEEASHNGQRRGLPKAVCMNGTEAAQLSTKSRAEGRAPNPARKACSASSKIRRLSACKQQ [R333Y] and MEVVDPQQLGMFTEGELMSVGMDTFIHRIDSTEVWYQPRRKRAKLIGKYLMGDLLGEGSYGKVKEVLDSETLCRRAVKILKKKKLRRIPNGEANVKKEIQLLRRLRHKNVIQLVDVLYNEEKQKMYMVMEYCVCGMQEMLDSVPEKRFPVCQAHGYFCQLIDGLEYLHSQGIVHKDIKPGNLLLTTGGTLKISDLGVAEALHPFAADDTCRTSQGSPAFQPPEIANGLDTFSGFKVDIWSAGVTLYNITTGLYPFEGDNIYKLFENIGKGSYAIPGDCGPPLSDLLKGMLEYEPAKRFSIRQIRQHSWFRKKHPPAEAPVPIPPSPDTKDRWRSMTVVPYLEDLHGADEDEDLFDIEDDIIYTQDFTVPGQVPEEEASHNGQRRGLPKAVCMNGTEAAQLSTKSRAEGRAPNPARKACSASSKIRRLSACKQQ [I35W] are within error of each other in STK11 functional score: 1.55 ± 0.23 for the first, 1.61 ± 0.3 for the second.

Work on MEVVDPQQLGMFTEGELMSVGMDTFIHRIDSTEVIYQPRRKRAKLIGKYLMGDLLGEGSYGKVKEVLDSETLCRRAVKILKKKKLRRIPNGEANVKKEIQLLRRLRHKNVIQLVDVLYNEEKQKMYMVMEYCVCGMQEMLDSVPEKRFPVCQAHGYFCQLIDGLEYLHSQGIVHKDIKPGNLLLTTGGTLKISDLGVAEALHPFAADDTCRTSQGSPAFQPPEIANGLDTFSGFKVDICSAGVTLYNITTGLYPFEGDNIYKLFENIGKGSYAIPGDCGPPLSDLLKGMLEYEPAKRFSIRQIRQHSWFRKKHPPAEAPVPIPPSPDTKDRWRSMTVVPYLEDLHGADEDEDLFDIEDDIIYTQDFTVPGQVPEEEASHNGQRRGLPKAVCMNGTEAAQLSTKSRAEGRAPNPARKACSASSKIRRLSACKQQ [W239C] yielded an STK11 functional score of 0.0722 ± 0.1.

Reference: the supplement of paper PMC12338614
